T1: C-reactive protein (CRP) (UniProt P02741 19-224)
T1 sequence: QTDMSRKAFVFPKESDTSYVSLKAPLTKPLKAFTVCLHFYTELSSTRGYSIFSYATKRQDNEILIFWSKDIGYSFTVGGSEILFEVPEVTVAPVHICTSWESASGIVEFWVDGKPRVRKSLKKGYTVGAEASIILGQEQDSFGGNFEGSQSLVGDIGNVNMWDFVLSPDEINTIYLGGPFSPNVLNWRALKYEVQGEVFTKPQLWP

T2: alpha fetoprotein (AFP) (human, UniProt P02771 19-609)
T2 sequence: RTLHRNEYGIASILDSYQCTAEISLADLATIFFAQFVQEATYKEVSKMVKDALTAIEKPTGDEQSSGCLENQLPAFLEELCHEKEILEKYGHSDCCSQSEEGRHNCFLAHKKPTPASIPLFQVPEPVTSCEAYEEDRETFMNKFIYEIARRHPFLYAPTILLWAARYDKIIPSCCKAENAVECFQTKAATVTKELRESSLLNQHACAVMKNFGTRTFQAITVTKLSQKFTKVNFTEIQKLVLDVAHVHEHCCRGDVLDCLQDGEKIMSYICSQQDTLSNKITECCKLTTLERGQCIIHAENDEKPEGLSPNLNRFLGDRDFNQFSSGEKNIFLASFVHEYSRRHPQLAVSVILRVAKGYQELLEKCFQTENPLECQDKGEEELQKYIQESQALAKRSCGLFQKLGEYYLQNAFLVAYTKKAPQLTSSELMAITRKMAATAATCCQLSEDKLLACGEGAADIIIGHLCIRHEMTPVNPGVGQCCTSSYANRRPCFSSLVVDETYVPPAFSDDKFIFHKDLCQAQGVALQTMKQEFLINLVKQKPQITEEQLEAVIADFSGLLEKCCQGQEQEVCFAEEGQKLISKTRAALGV

B1: HS-P-ATG (ssDNA)
DNA: ATACCAGCTTATTCAATTATG
modifications: 5' HS-(CH2)6
B2: HS-GAC-P (ssDNA)
DNA: GACATACCAGCTTATTCAATT
modifications: 5' HS-(CH2)6

How the values were obtained:
C-reactive protein (CRP) = target: T1, C-reactive protein (CRP); assay: electrochemical sandwich aptasensor
alpha fetoprotein (AFP) = target: T2, alpha fetoprotein (AFP); assay: electrochemical sandwich aptasensor

Binder	binding result (C-reactive protein (CRP))	binding result (alpha fetoprotein (AFP))
B1	no binding	no binding
B2	no binding	no binding

Reference: paper PMC9060916
